Earlier results, collected in patent US20070032640A1, “Cytokine receptor” (priority 2001, published 2007).

T1: gp130 (Homo sapiens, UniProt P40189)
T1 sequence (P40189 23-918): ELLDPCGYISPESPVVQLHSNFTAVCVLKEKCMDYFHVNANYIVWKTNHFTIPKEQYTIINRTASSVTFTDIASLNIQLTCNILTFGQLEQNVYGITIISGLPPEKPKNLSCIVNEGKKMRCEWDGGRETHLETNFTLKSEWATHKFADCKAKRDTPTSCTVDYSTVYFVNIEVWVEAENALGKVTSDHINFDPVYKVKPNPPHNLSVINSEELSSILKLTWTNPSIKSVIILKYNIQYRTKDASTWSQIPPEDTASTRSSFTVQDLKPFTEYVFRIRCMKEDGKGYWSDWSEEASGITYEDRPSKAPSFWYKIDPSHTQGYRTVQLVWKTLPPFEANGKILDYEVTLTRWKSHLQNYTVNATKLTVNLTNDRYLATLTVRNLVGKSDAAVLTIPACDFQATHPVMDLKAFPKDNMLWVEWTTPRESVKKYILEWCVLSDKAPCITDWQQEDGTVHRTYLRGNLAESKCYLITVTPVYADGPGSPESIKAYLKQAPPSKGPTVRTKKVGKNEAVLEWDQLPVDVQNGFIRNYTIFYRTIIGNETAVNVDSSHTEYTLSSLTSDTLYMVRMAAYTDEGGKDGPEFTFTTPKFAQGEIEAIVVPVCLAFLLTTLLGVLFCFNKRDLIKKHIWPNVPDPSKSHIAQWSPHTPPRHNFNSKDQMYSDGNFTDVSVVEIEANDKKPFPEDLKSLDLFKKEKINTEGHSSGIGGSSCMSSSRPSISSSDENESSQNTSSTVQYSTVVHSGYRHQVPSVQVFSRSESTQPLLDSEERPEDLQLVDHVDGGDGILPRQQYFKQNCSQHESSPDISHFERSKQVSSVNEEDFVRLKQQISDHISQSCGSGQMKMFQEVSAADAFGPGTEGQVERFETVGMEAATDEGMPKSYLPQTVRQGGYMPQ

B1: N211: IL-6R N-D mutant at N211 (protein, UniProt P08887 20-468, looked up, variant N211D)
Interleukin-6 receptor …: LAPRRCPAQEVARGVLTSLPGDSVTLTCPGVEPEDNATVHWVLRKPAAGSHPSRWAGMGRRLLLRSVQLHDSGNYSCYRAGRPAGTVHLLVDVPPEEPQLSCFRKSPLSNVVCEWGPRSTPSLTTKAVLLVRKFQNSPAEDFQEPCQYSQESQKFSCQLAVPEGDSSFYIVSMCVASSVGSKFSKTQTFQGCGILQPDPPANITVTAVARDPRWLSVTWQDPHSWNSSFYRLRFELRYRAERSKTFTTWMVKDLQHHCVIHDAWSGLRHVVQLRAQEEFGQGEWSEWSPEAMGTPWTESRSPPAENEVSTPMQALTTNKDDDNILFRDSANATSLPVQDSSSVPLPTFLVAGGSLAFGTLLCIAIVLRFKKTWKLRALKEGKTSMHPPYSLGQLVPERPRPTPVLVPLISPPVSPSSLGSDNTSSHNRPDARDPRSPYDISNTDYFFPR

Tests used:
[1] = target: T1, gp130; parameters: endogenous in cells; host or cells: human myeloma U266 cells; details: human myeloma U266 cells, high-affinity binding; read-out: affinity of IL-6/IL-6R complex for gp130; cited from earlier work
[2] = test system: IL-6; details: IL-6 binding of IL-6R mutant, relative to wild type; cited from earlier work
[3] = target: T1, gp130; details: IL-6R N-D mutant; cited from earlier work

Molecule	Kd [1] [nM]	Binding [2] [%]	binding to gp130 [3]
IL-6/IL-6R complex: complex of IL-6 with the ligand binding α-chain receptor IL-6R	~0.01	–	–
B1	–	75	N-D mutant, <10% binding to gp130
